Assay results: doi:10.1101/2020.08.16.252742

Experiments:
[1] = biological target: HIV-1 JR-FL Env glycoprotein (unlabelled) on HIV-1 Gag-GFP pseudovirions (HIV-1 JR-FL); assay: single-molecule photobleaching
[2] = biological target: HIV-1 NL4-3 Env glycoprotein (unlabelled) on HIV-1 Gag-GFP pseudovirions (HIV-1 NL4-3); assay: single-molecule photobleaching

**Q.** For “HIV-1 JR-FL Env glycoprotein (unlabelled) on HIV-1 Gag-GFP pseudovirions (complex)”, which stoichiometry N [1] is on record?
**A.** > 2 Envs

**Q.** “HIV-1 NL4-3 Env glycoprotein (unlabelled) on HIV-1 Gag-GFP pseudovirions (complex)” was tested. Which stoichiometry N [2] did it give?
**A.** > 3 Envs
